Columns and labels:
[1] = molecular target: T1, fusion of maltose binding protein, QRGRSA and the HY4 gene product of Arabidopsis thaliana, Q43125
T1 chain: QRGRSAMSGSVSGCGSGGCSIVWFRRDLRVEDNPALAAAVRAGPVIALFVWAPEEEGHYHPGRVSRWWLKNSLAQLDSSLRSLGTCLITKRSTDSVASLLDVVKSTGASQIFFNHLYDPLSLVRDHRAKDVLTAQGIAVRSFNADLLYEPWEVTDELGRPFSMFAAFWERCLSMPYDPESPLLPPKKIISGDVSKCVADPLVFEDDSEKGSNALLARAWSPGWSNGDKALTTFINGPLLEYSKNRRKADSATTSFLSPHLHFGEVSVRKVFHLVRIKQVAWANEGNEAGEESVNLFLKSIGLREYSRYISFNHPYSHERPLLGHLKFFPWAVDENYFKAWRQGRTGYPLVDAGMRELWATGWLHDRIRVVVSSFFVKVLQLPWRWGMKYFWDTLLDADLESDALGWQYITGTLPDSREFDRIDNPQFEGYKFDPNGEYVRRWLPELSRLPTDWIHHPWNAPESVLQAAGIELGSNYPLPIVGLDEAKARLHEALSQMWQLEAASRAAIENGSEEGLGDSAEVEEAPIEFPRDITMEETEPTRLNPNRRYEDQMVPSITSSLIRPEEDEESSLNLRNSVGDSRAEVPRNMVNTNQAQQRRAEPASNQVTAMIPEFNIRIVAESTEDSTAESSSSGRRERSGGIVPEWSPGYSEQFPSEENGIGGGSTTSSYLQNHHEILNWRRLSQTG

[2] = molecular target: T2, peptide (I), native cleavage sequence from plasminogen
T2 chain: KKSPGRVVGGSVAH

[3] = molecular target: T3, peptide (II) of Table 1, LGGSGQRGRKALE
T3 chain: LGGSGQRGRKALE

[4] = molecular target: T4, peptide (III) of Table 1, LGGSGERARGALE
T4 chain: LGGSGERARGALE

[5] = molecular target: T5, peptide (IV) of Table 1, LGGSGHYGRSGLE
T5 chain: LGGSGHYGRSGLE

[6] = molecular target: T6, peptide (V) of Table 1, YGRS
T6 chain: YGRS

[7] = molecular target: T7, peptide (VI) of Table 1, RGRK
T7 chain: RGRK

[8] = molecular target: T8, peptide (VII) of Table 1, FRGRK
T8 chain: FRGRK

peptide GSGKS [9] = molecular target: T9, peptide GSGKS
T9 chain: GSGKS

peptide LGGRGRSANAILE [10] = molecular target: T10, peptide LGGRGRSANAILE
T10 chain: LGGRGRSANAILE

peptide LGGSGRKASLSLE [11] = molecular target: T11, peptide LGGSGRKASLSLE
T11 chain: LGGSGRKASLSLE

peptide LGGSGRNAQVRLE [12] = molecular target: T12, peptide LGGSGRNAQVRLE
T12 chain: LGGSGRNAQVRLE

peptide LGGSGRSANAILE [13] = molecular target: T13, peptide LGGSGRSANAILE
T13 chain: LGGSGRSANAILE

peptide LGGSGRSATRDLE [14] = molecular target: T14, peptide LGGSGRSATRDLE
T14 chain: LGGSGRSATRDLE

peptide LGGYGRSANAILE [15] = molecular target: T15, peptide LGGYGRSANAILE
T15 chain: LGGYGRSANAILE

peptide LGQRGRSANAILE [16] = molecular target: T16, peptide LGQRGRSANAILE
T16 chain: LGQRGRSANAILE

peptide SGKS [17] = molecular target: T17, peptide SGKS
T17 chain: SGKS

peptide SGRSA [18] = molecular target: T18, peptide SGRSA
T18 chain: SGRSA

peptide SGRS [19] = molecular target: T19, peptide SGRS
T19 chain: SGRS

[20] = molecular target: T2, peptide (I), native cleavage sequence …; assay: kinetics of peptide hydrolysis by the enzyme, HPLC, Eadie-Hofstee
[21] = molecular target: T3, peptide (II) of Table 1, LGGSGQRGRKALE; assay: as above
[22] = molecular target: T4, peptide (III) of Table 1, LGGSGERARGALE; assay: as above
[23] = molecular target: T5, peptide (IV) of Table 1, LGGSGHYGRSGLE; assay: as above
peptide LGGRGRSANAILE [24] = molecular target: T10, peptide LGGRGRSANAILE; assay: as above
peptide LGGSGRKASLSLE [25] = molecular target: T11, peptide LGGSGRKASLSLE; assay: as above
peptide LGGSGRNAQVRLE [26] = molecular target: T12, peptide LGGSGRNAQVRLE; assay: as above
peptide LGGSGRSANAILE [27] = molecular target: T13, peptide LGGSGRSANAILE; assay: as above
peptide LGGSGRSATRDLE [28] = molecular target: T14, peptide LGGSGRSATRDLE; assay: as above
peptide LGGYGRSANAILE [29] = molecular target: T15, peptide LGGYGRSANAILE; assay: as above
peptide LGQRGRSANAILE [30] = molecular target: T16, peptide LGQRGRSANAILE; assay: as above
[31] = molecular target: T6, peptide (V) of Table 1, YGRS; assay: kinetics of peptide hydrolysis by the enzyme, HILIC HPLC, Eadie-Hofstee
[32] = molecular target: T7, peptide (VI) of Table 1, RGRK; assay: as above
[33] = molecular target: T8, peptide (VII) of Table 1, FRGRK; assay: as above
peptide GSGKS [34] = molecular target: T9, peptide GSGKS; assay: as above
peptide SGKS [35] = molecular target: T17, peptide SGKS; assay: as above
peptide SGRSA [36] = molecular target: T18, peptide SGRSA; assay: as above
peptide SGRS [37] = molecular target: T19, peptide SGRS; assay: as above

B1: tissue plasminogen activator (t-PA) (protein)
chain: SYQVICRDEKTQMIYQQHQSWLRPVLRSNRVEYCWCNSGRAQCHSVPVKSCSEPRCFNGGTCQQALYFSDFVCQCPEGFAGKCCEIDTRATCYEDQGISYRGTWSTAESGAECTNWNSSALAQKPYSGRRPDAIRLGLGNHNYCRNPDRDSKPWCYVFKAGKYSSEFCSTPACSEGNSDCYFGNGSAYRGTHSLTESGASCLPWNSMILIGKVYTAQNPSAQALGLGKHNYCRNPDGDAKPWCHVLKNRRLTWEYCDVPSCSTCGLRQYSQPQFRIKGGLFADIASHPWQAAIFAKHRRSPGERFLCGGILISSCWILSAAHCFQERFPPHHLTVILGRTYRVVPGEEEQKFEVEKYIVHKEFDDDTYDNDIALLQLKSDSSRCAQESSVVRTVCLPPADLQLPDWTECELSGYGKHEALSPFYSERLKEAHVRLYPSSRCTSQHLLNRTVTDNMLCAGDTRSGGPQANLHDACQGDSGGPLVCLNDGRMTLVGIISWGLGCGQKDVPGVYTKVTNYLDWIRDNMRP
cleavage of fusion protein, SDS-PAGE [1]: t-PA readily cleaved the fusion protein
kcat [2]: 0.0043 s⁻¹
kcat/Km [2]: 0.29 M⁻¹ s⁻¹
kcat [3]: 0.99 s⁻¹
kcat/Km [3]: 430 M⁻¹ s⁻¹
kcat [4]: 0.073 s⁻¹
kcat/Km [4]: 52 M⁻¹ s⁻¹
kcat [5]: 1.29 s⁻¹
kcat/Km [5]: 322 M⁻¹ s⁻¹
kcat [6]: 23.7 s⁻¹
kcat/Km [6]: 3950 M⁻¹ s⁻¹
kcat [7]: 15.3 s⁻¹
kcat/Km [7]: 992 M⁻¹ s⁻¹
fold more efficient cleavage by t-PA than by u-PA [8]: approximately 74 times more efficiently by t-PA than by u-PA
kcat [8]: 12.2 s⁻¹
kcat/Km [8]: 1240 M⁻¹ s⁻¹
kcat (peptide GSGKS [9]): 0.07 s⁻¹
kcat/Km (peptide GSGKS [9]): 1.6 M⁻¹ s⁻¹
kcat (peptide LGGRGRSANAILE [10]): 0.85 s⁻¹
kcat/Km (peptide LGGRGRSANAILE [10]): 350 M⁻¹ s⁻¹
kcat (peptide LGGSGRKASLSLE [11]): 0.168 s⁻¹
kcat/Km (peptide LGGSGRKASLSLE [11]): 33 M⁻¹ s⁻¹
kcat (peptide LGGSGRNAQVRLE [12]): 0.255 s⁻¹
kcat/Km (peptide LGGSGRNAQVRLE [12]): 36 M⁻¹ s⁻¹
kcat (peptide LGGSGRSANAILE [13]): 0.305 s⁻¹
kcat/Km (peptide LGGSGRSANAILE [13]): 75 M⁻¹ s⁻¹
kcat (peptide LGGSGRSATRDLE [14]): 0.068 s⁻¹
kcat/Km (peptide LGGSGRSATRDLE [14]): 45 M⁻¹ s⁻¹
kcat (peptide LGGYGRSANAILE [15]): 3.29 s⁻¹
kcat/Km (peptide LGGYGRSANAILE [15]): 1800 M⁻¹ s⁻¹
kcat (peptide LGQRGRSANAILE [16]): 2.55 s⁻¹
kcat/Km (peptide LGQRGRSANAILE [16]): 850 M⁻¹ s⁻¹
fold decrease of catalytic efficiency against peptide (VI) SGRS (peptide SGKS [17]): by a factor of 49 for t-PA
kcat (peptide SGKS [17]): 0.19 s⁻¹
kcat/Km (peptide SGKS [17]): 6.8 M⁻¹ s⁻¹
kcat (peptide SGRSA [18]): 2.4 s⁻¹
kcat/Km (peptide SGRSA [18]): 60 M⁻¹ s⁻¹
kcat (peptide SGRS [19]): 5 s⁻¹
kcat/Km (peptide SGRS [19]): 330 M⁻¹ s⁻¹
Km [20]: 15 mM
Km [21]: 2.3 mM
Km [22]: 1.41 mM
Km [23]: 4.01 mM
Km (peptide LGGRGRSANAILE [24]): 2.4 mM
Km (peptide LGGSGRKASLSLE [25]): 5.1 mM
Km (peptide LGGSGRNAQVRLE [26]): 7 mM
Km (peptide LGGSGRSANAILE [27]): 4.08 mM
Km (peptide LGGSGRSATRDLE [28]): 1.5 mM
Km (peptide LGGYGRSANAILE [29]): 1.85 mM
Km (peptide LGQRGRSANAILE [30]): 3 mM
Km [31]: 6 mM
Km [32]: 16.6 mM
Km [33]: 9.8 mM
Km (peptide GSGKS [34]): 44 mM
Km (peptide SGKS [35]): 28 mM
Km (peptide SGRSA [36]): 40 mM
Km (peptide SGRS [37]): 15 mM

Reference: US20030186329
